Measured values reported in patent publication US20090203530A1, “Polymer evolution via templated synthesis” (priority 2005, published 2009).

Tests used:
papain [1] = biological target: T1, papain (Carica papaya, UniProt P00784); test: Fluorescence polarization-based papain binding assay; details: BFL-labelled controls; varying concentrations of papain
T1 construct: purchased Sigma-Aldrich
T1 sequence (P00784 134-345): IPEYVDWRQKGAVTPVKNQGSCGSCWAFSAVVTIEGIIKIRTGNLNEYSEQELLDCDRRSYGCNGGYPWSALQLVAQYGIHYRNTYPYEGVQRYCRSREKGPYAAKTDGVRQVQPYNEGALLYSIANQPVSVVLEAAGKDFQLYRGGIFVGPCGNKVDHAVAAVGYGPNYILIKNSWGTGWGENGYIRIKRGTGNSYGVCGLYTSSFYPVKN
Description: Purified PNA 18-mers prepared as described above were reacted with BODIPY-fluorescein succinamidyl ester (BFL-SE, Molecular Probes). For each labelling reaction, 25 μL of a 250-400 μM stock solution of PNA in H2O was mixed with 25 μL 0.2 M sodium bicarbonate (pH 8.0) plus 2.5 μL of a 20 mg/mL solution of BFL-SE in DMSO. After four hours at 25° C., 50 μL DMSO was added, and the labelling reaction was incubated for an additional 4 hours. The labelled product was purified by reverse-phase HPLC as described above. The addition of the BFL fluorophore on the N-terminal primary amine typically delayed the elution time of the PNA by ˜5 min, and the absorption of the eluted peak was monitored both at 260 nm and at 470 nm. Masses of labelled peptides were confirmed by MALDI mass spectrometry, as follows:
Fluorescence polarization-based papain affinity assays were carried out as follows. BFL-labelled PNA was used at concentrations between 5 nM and 10 nM. […] After the binding reactions were equilibrated (4 hours at 25° C.), they were loaded onto a Nunc opaque black 384-well plate, and fluorescence polarization was measured using the Analyst AD system (Molecular Devices) with a fluorescein filter. Fluorescence polarization data in FIGS. 5B and 6C is shown as the change in fluorescence polarization (calculated relative to the output in the absence of protein) as a function of papain concentration. […]

papain [2] = biological target: T1, papain; test: Enrichment assay by papain affinity selection of translated template mixtures; type: binding
Description: The methods used for in vitro papain affinity selection have been reported previously (Giesen (1998) NUCLEIC ACIDS RES. 26, 5004-5006). Papain-conjugated sepharose beads (50 μL) were prepared according to this protocol and combined with […] of translated and displaced PNA library. After 4 hours at 4° C. with slow mixing, the beads were filtered, washed three times with high salt buffer (50 mM Tris pH 7.5, 0.5 M NaCl), once with low salt buffer (50 mM Tris pH 7.5, 0.1 M NaCl), and resuspended in 50 μL papain selection buffer (50 mM Tris pH 7.5, 100 mM NaCl, 1 mM EDTA). One fifth of the beads were removed for PCR as described below.
The remaining beads (40 μL) were heated for 15 min at 95° C., cooled to 60° C., supplemented with an equal volume of fresh papain-linked sepharose beads; cooled rapidly to 4° C., and the selection was repeated. This protocol was repeated three times (four rounds total) for the first-generation selection (FIG. 4A) and was repeated twice (three rounds total) for the second-generation selection (FIG. 6A). After each round of affinity selection, PCR was performed using one fifth of the total beads. Filtered beads were resuspended in 18 μL NEB buffer 4 with BSA, 1 μL Hha I, and 1 μL HinPI I (all restriction endonucleases purchased from New England Biolabs). Reactions were incubated for 1.5 hours at 37° C., then added directly into 80 μL PCR master mix containing 5 μL Taq buffer, 5 μL 25 mM MgCl2, 1 μL 100 μM primer 1, 1 μL 100 μM primer 2, 1 μL 25 mM dNTPs, and 1 μL Taq DNA polymerase and 54 μL H2O. Primer sequences are as follows:
For the enrichment experiments described in FIG. 5A, […] total template:mixture (500:1 M1 template:P1 template; or 500:1 U1 template:P1 template) was translated as described above using library translation conditions. The individual template sequences are as follows:
The translated products were displaced as described above, subjected to three rounds of selection against papain as described above, and the resulting bound DNA templates were digested and amplified by PCR as described above. […]

CC1=CC(C)=[N+]2C1=Cc1ccc(CCC(=O)NCCN)n1[B-]2(F)F [BFL fluorophore, BFL-ethylenediamine]
papain affinity (fluorescence polarization) (papain [1]): did not bind papain

B1: U1: unrelated library sequence, translated from template SEQ ID NO: 18 (conjugate)
DNA: TGCGACGGTGCGCACCGTCGCAAGTCAGTCACCCAATCACTCACGCATCCAGTCACCCAACCGGACAAGGTGCGCACCTTGTCC
modifications: DNA, backbone and methylation of C not given here; DNA template covalently linked to PNA translation product, further chemistry not fully specified
enrichment after papain affinity selection (papain [2]; 500:1 ratio of M1:U1 DNA templates, translation, displacement, selection): no detectable enrichment

B2: P1 translation product: PNA 40-mer selected for papain binding, covalently linked to its DNA template (SEQ ID NO: 16) (conjugate)
DNA: TGCGACGGTGCGCACCGTCGCAAGCCATTCATGCATGCACCCAGGCATGCATTCATTCATGCGGACAAGGTGCGCACCTTGTCC
modifications: DNA, backbone and methylation of C not given here; DNA template covalently linked to PNA translation product, further chemistry not fully specified
enrichment after papain affinity selection (papain [2]; 500:1 M1:P1 template mixture, translated, displaced, three rounds of selection, PCR and restriction digestion): ~500 fold | enrichment after papain affinity selection (papain [2]; 500:1 mixture of U1 (unrelated):P1 templates): 500 fold
